Tested on: Hs700T malignant pancreatic cells
Assay: Hs700T pancreatic xenograft tumor growth in mice (04 IGFR-16, 19D12 and Gemzar combination);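 note: subcutaneous flank xenografts in athymic nude mice, treated once tumors averaged 100 mm^3, antibody given intraperitoneally twice weekly, tumor size measured by calipers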
Protocol: Athymic nude mice were inoculated with tumor cells in the right flank, subcutaneously, along with Matrigel (1:1 cells:gel). In these experiments, 5×10^6 cells/mouse in a 1:1 mix with regular matrigel were inoculated subcutaneously. Tumor size was measured with calipers and the data was entered into the labcat program. Mice were grouped with average size of 100 mm^3. Tumor size and body weight were measured twice weekly.
In these experiments, mice were dosed twice per week, intraperitoneally (i.p.) with antibody 19D12 and chemotherapeutic agents at the indicated frequency. Tumor size and mouse body weight was measured twice weekly after treatment.

B1: 19D12: anti-IGF1R antibody: light chain variable region amino acids 20-128 of SEQ ID NO: 8, heavy chain variable region amino acids 20-137 of SEQ ID NO: 10 (antibody, V domains shown)
VL: MSPSQLIGFLLLWVPASRGEIVLTQSPGTLSVSPGERATLSCRASQSIGSSLHWYQQKPGQAPRLLIKYASQSLSGIPDRFSGSGSGTDFTLTISRLEPEDFAVYYCHQSSRLPHTFGQGTKVEIKRT
VH: MEFGLSWVFLVAILKGVQCEVQLVQSGGGLVKPGGSLRLSCAASGFTFSSFAMHWVRQAPGKGLEWISVIDTRGATYYADSVKGRFTISRDNAKNSLYLQMNSLRAEDTAVYYCARLGNFYYGMDVWGQGTTVTVSS
modifications: variable regions only: LC 20-128, HC 20-137; constant regions lack entries
0.1 mg 19D12, Day 0
  Tumor Average Size: 74 mm^3
0.1 mg 19D12, Day 4
  Tumor Average Size: 86 mm^3
0.1 mg 19D12, Day 7
  Tumor Average Size: 89 mm^3
0.1 mg 19D12, Day 11
  Tumor Average Size: 98 mm^3
0.1 mg 19D12, Day 14
  Tumor Average Size: 123 mm^3
0.1 mg 19D12, Day 18
  Tumor Average Size: 165 mm^3
0.1 mg 19D12, Day 21
  Tumor Average Size: 187 mm^3
0.1 mg 19D12, Day 26
  Tumor Average Size: 272 mm^3
0.1 mg 19D12, Day 29
  Tumor Average Size: 335 mm^3
0.1 mg 19D12, Day 33
  Tumor Average Size: 371 mm^3
0.1 mg 19D12, Day 36
  Tumor Average Size: 415 mm^3
0.5 mg 19D12, Day 0
  Tumor Average Size: 75 mm^3
0.5 mg 19D12, Day 4
  Tumor Average Size: 70 mm^3
0.5 mg 19D12, Day 7
  Tumor Average Size: 69 mm^3
0.5 mg 19D12, Day 11
  Tumor Average Size: 71 mm^3
0.5 mg 19D12, Day 14
  Tumor Average Size: 93 mm^3
0.5 mg 19D12, Day 18
  Tumor Average Size: 115 mm^3
0.5 mg 19D12, Day 21
  Tumor Average Size: 137 mm^3
0.5 mg 19D12, Day 26
  Tumor Average Size: 239 mm^3
0.5 mg 19D12, Day 29
  Tumor Average Size: 249 mm^3
0.5 mg 19D12, Day 33
  Tumor Average Size: 282 mm^3
0.5 mg 19D12, Day 36
  Tumor Average Size: 334 mm^3
1 mg 19D12, Day 0
  Tumor Average Size: 77 mm^3
1 mg 19D12, Day 4
  Tumor Average Size: 80 mm^3
1 mg 19D12, Day 7
  Tumor Average Size: 85 mm^3
1 mg 19D12, Day 11
  Tumor Average Size: 81 mm^3
1 mg 19D12, Day 14
  Tumor Average Size: 99 mm^3
1 mg 19D12, Day 18
  Tumor Average Size: 128 mm^3
1 mg 19D12, Day 21
  Tumor Average Size: 152 mm^3
1 mg 19D12, Day 26
  Tumor Average Size: 231 mm^3
1 mg 19D12, Day 29
  Tumor Average Size: 280 mm^3
1 mg 19D12, Day 33
  Tumor Average Size: 312 mm^3
1 mg 19D12, Day 36
  Tumor Average Size: 305 mm^3
